Measurements: the DeepSol protein solubility set

Experiment: soluble on expression in E. coli; label from the status in PepcDB or PDB records

| Sequence | soluble on expression in E. coli |
| --- | --- |
| MSIMLPINNNFSLSQNSFYNTISGTYADYFSAWDKWEKQALPGENRNEAVSLLKECLINQFSELQLNRLNLSSLPDNLPPQITVLEITQNALISLPELPASLEYLDACDNRLSTLPELPASLKHLDVDNNQLTMLPELPALLEYINADNNQLTMLPELPTSLEVLSVRNNQLTFLPELPESLEALDVSTNLLESLPAVPVRNHHSEETEIFFRCRENRITHIPENILSLDPTCTIILEDNPLSSRIRESLSQQTAQPDYHGPRIYFSMSDGQQNTLHRPLADAVTAWFPENKQSDVSQIWHAFEHEEHANTFSAFLDRLSDTVSARNTSGFREQVAAWLEKLSASAELRQQSFAVAADATESCEDRVALTWNNLRKTLLVHQASEGLFDNDTGALLSLGREMFRLEILEDIARDKVRTLHFVDEIEVYLAFQTMLAEKLQLSTAVKEMRFYGVSGVTANDLRTAEAMVRSREENEFTDWFSLWGPWHAVLKRTEADRWALAEEQKYEMLENEYPQRVADRLKASGLSGDADAEREAGAQVMRETEQQIYRQLTDEVLALRLPENGSQLHHS | soluble |
| KSAIVHLINYQDDAELATRALPELTKLLNDEDPVVVTKAAMIVNQLSKKEASRRALMGSPQLVAAVVRTMQNTSDLDTARCTTSILHNLSHHREGLLAIFKSGGIPALVRMLSSPVESVLFYAITTLHNLLLYQEGAKMAVRLADGLQKMVPLLNKNNPKFLAITTDCLQLLAYGNQESKLIILANGGPQALVQIMRNYSYEKLLWTTSRVLKVLSVCPSNKPAIVEAGGMQALGKHLTSNSPRLVQNCLWTLRNLSDVATKQEGLESVLKILVNQLSVDDVNVLTCATGTLSNLTCNNSKNKTLVTQNSGVEALIHAILRAGDKDDITEPAVCALRHLTSRHPEAEMAQNSVRLNYGIPAIVKLLNQPNQWPLVKATIGLIRNLALCPANHAPLQEAAVIPRLVQLLVKAHQDAQRHVAAGTQQPYTDGVRMEEIVEGCTGALHILARDPMNRMEIFRLNTIPLFVQLLYSSVENIQRVAAGVLCELAQDKEAADAIDAEGASAPLMELLHSRNEGTATYAAAVLFRISEDKNPDYRKRVSVELTNSLFKHD | soluble |
| GSFTSSGCQEANYGALLRELCLTQFQVDMEAVGETLWCDWGRTIRSYRELADCTWHMAEKLGCFWPNAEVDRFFLAVHGRYFRSCPISGRAVR | soluble |
| MLDGLVVGGGLAGLTAARVLTRAGRRVRVLEAAPEVGGRVRSRELEGFTLDAGFQVLFPAYPAVRRQLNLDALDLVPLPSAAALRRGAREDVLGSPLDDLASLPSTLKSGALTLGDKLRVARLAASLRTPAAHELLIGSDESTESFLRGQGFSEAALDHFFRPFFGGIFLRRDLATSARLFRYYFRMLMDGGAALPRRGMGELSRQLAQGSDLLTGVRVSRLLPRPGYVTAVTSAGEIDARQVIVATEAPTASDLTGEALSRGALSSTYLYYATPQRISGQHRLLLNAETGLINNAQWTSLAVPGRAPTGQHLLTVTVLGLPDLDDASLDARVRGELTRWYGAEAVGTLRLLMLERIPYAQFEQPAGYAATLPGHATSLPGVLLASEITSMSGIQGALESGEKAAAIVLGDLAALSRPRGALEHHHHHH | not soluble |
| MGSDKIHHHHHHMQLITSLDIRNSEYLSKDRLISYHHQLRLIFSLGNQVKNVLEIGIFNSLLTDILKNNGYNVTTADVDPNLKPEMILDLTTDFSLPKDKFDAIVLFQVLEHFPYEQSEEALKKLAEATKKFLVISIPYCTQYLSFQIKSSFSGRPRYLLLSVPKFWSTKPVCDEHYWEMGLKGYPKKRILNSVANAGLTVKQEFIDPSYPYHYFLVLEKTNNI | not soluble |
| MDPSAAFRSFPTQERGILLADTYKPLSLYAADVQVRLSGSAAQVILSLEYVNETNKLVRAIAAYPAPSSYQLQCATLQGPAREISARSYVRSRPLRSVEAGSALCAEPLVDTAVSTVATQSVPWDVSPGESVLMKAVYHAPISVTHRTGEIVFTLPASLIPAVQRPPDVQRGYMKFLDARSQLRHLAQQGGSLRVCVDAQLLVPLRGVVTLEKGPEVVPEMGVTGTSVNVHYVGDTHFQMTYHDDLPKTAYMQVPLCVRAPVAETSEPLRLHTVAASLPPTSAPSDHPTAEVAAAMVVSIAPFLANCPINAEIMFVVDVHSAALGARAAESVMSAIRSLNGTASLVNVILCRDAHRGGAVSLLPDESVQSSAVPQESMLAFMKEEGVQTSSSKGPATLSPHLPSLLHDITTGRGITTSIPAGYVRNVIVLSDGGSQPVDADAVAMVCQVTNAGRACRVHAVALAATADHAVLEALAEACGGCFASAAASGSSEAGGSAVDEAVQAAVSAAAVPCLVDIRTKWDVTGGDIAVASSVQAAAAAPSPLRMATDADGGSIACVPHGTQRLLYGLLASANSQLAVRVFGRVGEMRLEYTASSAIQPPPQSDAADTAAAADATDEESGRAPPMLMTAAAAARIAYLTHILHTTSEDEALEVIALSKRYMLPSPYTTLTDGNSGPGGEHKLGGVVHLPSMQAAAHVELAIRARRVELQAAAALRALRPA | soluble |
| MAHHHHHHMLNCFFGAELKPDGVPISFTIPKGTTLVITQCAVTSVVPPQQSTDAGASSSPAVVAKAYNPVTLCVQGHGLPTRFAVCSLSPAQHITYCPLQLLFSKPVSFVLVPQTGSTAAAAAASSSPSPAPHAGKKTGRNQKHSKTTAGAHGAGAEATAVYPTVHLTGYYERAADEDEEDGSMAMDVMESSDDGENDDLSDDE | soluble |
| MQQPEQYCRFLCLVAHEFFHLWNIKRIRPQAFEVFDYDSENYTTSLWFVEGVTSYFDQLIPLWAGLFDAPTYLKLLSDSLNRYFHTPGRFVQSLSAASFDAWIKLYRPDENSINSQMSYYLKGELVALLLDLRLEHHHHHH | not soluble |
| KPYPYQQDMLESLQAEREQHNRHRNLLVAATGTGKTVVAALDYRSMCDALGRRPRLLFIAHRKEILQQALRTFREVLSDGNFGELLVDGVLPKEWTHVFASIQSLNTSRMEALGKDHFEFIIIDEFHHAQAISYRKVMDYFEPQELLGLTATPERG | not soluble |
| MGSDKIHHHHHHMNEQWFLLGDIHGSAQPVHYFYQKNKERLSLDSSENFMILLGDVGANFALTGQRDHKFKSELSKLPFTFICLRGNHEARVKTVMDKNPDGWETISKYDGSIFVEKEFPYIEYLADGPAVYNFKSYKTLSLPGAYSVDKYYRQARHLTWYKDEQLNEKEMELGRKLCRNEAPFDLVLSHTCPYLYEPTDLFLAGLDQSTVDSTMERYLGEIEFNLDYKRWAFGHFHADRLYPWADGRQMLMLFNENVVNLDKFMNMTEKQSFKDIIA | not soluble |
| MSTNEIYNREEVLLLIEKLLGNNIEIPILLMLLLGLRMGEATGLRWSDVDLDNNLINVNQILVYSNGKISFKEPKTPKSKRALSAPKELIEKLKIEKLRQSKLKLQGILENKNNLVCLNTNLNPFLPSSLRKTFHNFTKKNNLKKIRIHDLRHTSATLLLLGGTNMKVVSERLGHTDIKITMNRYSHVLKEMDKEASDNLSELLEHHHHHH | not soluble |
| MPHPTHCRSANAVFRARMEFGLLEAPVSFSTLMDKRERGSFDSQFLIAMPGLDDGNFARSVIYICAHSDAGAMGFIINRPQQITFTDILLHLKLVDSNDAIMLPNRTREFPIQCGGPVESGRGFVLHSDDYLSESSIPVSDDISLTATLDIVRAISNGRGPQKATMMLGYAGWGPGQLENEIANNGWLNCPAAEELIFDRGLDNKYERALALMGVDARMLSTDAGHALEHHHHHH | soluble |
| MAHHHHHHMGYMQEREEMSAMVDQRTAQLEALTSSVAEAQKKLQALDERMMALEPHGNVQATAPAGATATTSKRARAGASSVGGAWDAAGVASATKMPPEELKKKVEESIEHIFHLLRTGDQQLKLTAQNPNLRKSVDGAKVAGNASHGRSRAASLHRGPKALQSSTMQTGKMKAATGGSSYDSQRPSSGAHRSGKSTVGATTAAGAADAASQQQHHDASMGPVEMLTIIENKLEEYHRYLSDPANHVELALMKAVMKQSDKQRRRQARIIHLANQEDEQEERIRRALERSQAPIIHKIGKPFRPRSFVSKPIDEKSRRKAERAAAALNGSLDNIDSDEDGAEFFM | soluble |
| MVNFTVDEIRALMDRKRNIRNMSVIAHVDHGKSTLTDSLVSKAGIIAGSKAGETRFTDTRKDEQERCITIKSTAISLFFELEKKDLEFVKGENQFETVEVDGKKEKYNGFLINLIDSPGHVDFSSEVTAALRVTDGALVVVDCVSGVCVQTETVLRQAIAERIKPVLFMNKMDRALLELQLGAEELFQTFQRIVENINVIIATYGDDDGPMGPIMVDPSIGNVGFGSGLHGWAFTLKQFAEMYAGKFGVQVDKLMKNLWGDRFFDLKTKKWSSTQTDESKRGFCQFVLDPIFMVFDAVMNIKKDKTAALVEKLGIKLANDEKDLEGKPLMKVFMRKWLPAGDTMLQMIAFHLPSPVTAQKYRMEMLYEGPHDDEAAVAIKTCDPNGPLMMYISKMVPTSDKGRFYAFGRVFSGKVATGMKARIQGPNYVPGKKEDLYEKTIQRTILMMGRFIEPIEDIPSGNIAGLVGVDQYLVKGGTITTYKDAHNMRVMKFSVSPVVRVAVEAKNPADLPKLVEGLKRLAKSDPMVQCIFEESGEHIIAGAGELHLEICLKDLEEDHACIPLKKSDPVVSYRETVQSESNQICLSKSPNKHNRLHCTAQPMPDGLADDIEGGTVNARDEFKARAKILAEKYEYDVTEARKIWCFGPDGTGPNLLMDVTKGVQYLNEIKDSVVAGFQWATREGVLSDENMRGVRFNVHDVTLHADAIHRGGGQIIPTARRVFYASVLTAEPRLLEPVYLVEIQCPEAAVGGIYGVLNRRRGHVFEESQVTGTPMFVVKAYLPVNESFGFTADLRSNTGGQAFPQCVFDHWQVLPGDPLEAGTKPNQIVLDTRKRKGLKEGVPALDNYLDKM | not soluble |
| MGSDKIHHHHHHMLENRVKTKQIFIGGVAIGGDAPISTQSMTFSKTADIESTKNQIDRLKLAGADLVRVAVSNEKDALALKELKKVSPLPLIADIHFHYKFALIAAQSVDAIRINPGNIGSKEKIKAVVDACKEKNIPIRIGVNAGSLEKQFDQKYGPTPKGMVESALYNAKLLEDLDFTNFKISLKASDVIRTIEAYRMLRPLVIYPFHLGVTEAGNLFSSSIKSAMALGGLLMEGIGDTMRVSITGELENEIKVARAILRHSGRLKEGINWISCPTCGRIEANLVDMAIKVEKRLSHIKTPLDISVMGCVVNALGEAKHADMAIAFGNRSGLIIKEGKVIHKLAEKDLFETFVIEVENLAKEREKSLKD | not soluble |
| MKLATKKNGTRDGLLMVVSKDLTRCVPATEVFHPRNLAPTMQVALDNWEAVAPQLEEIYTALNNGTVAGFEEFEAHYCESPLPRAYQWADGSAYVNHVELVRKARGAEMPESFWTDPLMYQGGSDAFIGPCDNIEFASDEWGIDFEGEVAVVTGDVPMGASIAEAQESIRLIMLVNDVSLRGLIPAELAKGFGFFQSKPSSAFSPVAVTPDELGDEWYENKVHLPLVSTYNHKPFGRPNAGVDMTFDFADLIVHATKTRPLSAGAIIGSGTVSNKQGTDHGTSIEEGGVGYSCIAEVRMIETIRDGKPTTNFMSFGDSIKLEMFDVEGNTIFGAIDQQVSQYLKH | not soluble |
| MIPRPIPEPSPDLYTEEEVSKLVHEFYAKARKDAALGPIFEEHVIDWDAHFVQMTNFWSAQLRGTSRFRGAPMPKHIALPELNETLFKRWLQLFRQTTLELGNPLLKQHADTVAEFIAGRLWMGYQMSHFPHREPADLNTSEV | not soluble |
| MSNNNKYFTITKKQYKKMRRNKIELLFNVKVLKKKNGRQKFKILHEVENKPKIPIKIIEDQPESPKPLKPPKPPKPPKGPDNPEEPDSPEEPKETDQPGGPDNPNAGNKKMPTPEEYVTRKEFNEFKDSNNQRLTKIENKVDKLEVKVDKLAEIVQTQGEEIKELKVEQKAQSETLQLILKTLQKMNDRLDRMETRLDKIDSPKLEHHHHHH | soluble |
